The record followed here is US20050147555A1 (BRACCO SUISSE, published 2005).

In experiment [1] the target is T1, KDR-Fc (chimeric fusion of Ig Fc region with human KDR, R&D Systems #357-KD-050) (human, UniProt P35968 20-764).
T1 construct: Bought; also called KDR Fc fusion; not shown: Ig Fc region of the bought chimera
The experiment can be described thus: fluorescence polarisation, monodentate peptide against KDRFc. Background: Polarisation of emitted light reports the rotation of a fluorescent probe.

Experiment [2] has as its target T2, KDR (VEGFR-2, Flk-1), full-length receptor on cells (human, UniProt P35968 20-1356).
T2 construct: whole, on cells; endogenous on HUVECs in the functional assays; also called VEGF receptor 2
As to the kind of experiment: saturation binding of peptide/neutravidin-HRP complex, KDR- minus mock-transfected 293H cells.
Method: After incubation at room temperature, plates were transferred to 4° C. for another half-hour incubation. Subsequently, cells were washed five times with ice-cold M199 media and 1× with ice-cold PBS (in that order). After the final wash, 100 μL of ice cold TMB solution (KPL, cat. # 50-76-00) was added to each well, and each plate was incubated for 30 minutes at 37° C. in an air incubator.
Therefore, absorbance on the Y-axis of FIG. 8 is differential absorbance (KDR minus mock) and not the absolute absorbance.

Experiment [3] deals with T3, Soluble KDR receptor (UniProt P35968 20-764, limits assumed).
T3 construct: Immobilised by amine coupling, RL 12721
T3 sequence (P35968 20-764 limits assumed): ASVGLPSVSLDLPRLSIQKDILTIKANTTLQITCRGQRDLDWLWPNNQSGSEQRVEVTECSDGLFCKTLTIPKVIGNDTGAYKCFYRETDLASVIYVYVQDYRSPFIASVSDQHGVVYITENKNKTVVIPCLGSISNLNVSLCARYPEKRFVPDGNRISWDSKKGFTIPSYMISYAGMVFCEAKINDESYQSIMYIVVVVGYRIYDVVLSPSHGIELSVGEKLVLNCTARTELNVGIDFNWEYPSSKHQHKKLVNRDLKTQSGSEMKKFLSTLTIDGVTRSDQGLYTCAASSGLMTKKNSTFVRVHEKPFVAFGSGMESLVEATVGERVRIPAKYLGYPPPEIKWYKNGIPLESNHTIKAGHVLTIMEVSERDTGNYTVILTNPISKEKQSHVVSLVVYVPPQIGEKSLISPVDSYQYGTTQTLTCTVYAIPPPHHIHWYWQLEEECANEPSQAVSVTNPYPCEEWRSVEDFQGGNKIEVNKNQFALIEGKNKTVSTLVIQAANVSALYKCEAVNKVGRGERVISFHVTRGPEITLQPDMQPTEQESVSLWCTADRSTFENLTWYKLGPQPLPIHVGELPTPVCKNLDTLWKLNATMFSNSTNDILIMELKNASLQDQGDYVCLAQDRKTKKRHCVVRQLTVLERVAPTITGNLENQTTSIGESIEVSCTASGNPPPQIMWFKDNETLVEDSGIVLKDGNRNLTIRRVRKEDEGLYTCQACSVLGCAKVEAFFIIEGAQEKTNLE
As to the kind of experiment: SPR (Biacore 3000), soluble KDR on CM5 chip; apparent KD. (SPR reads the build-up and loss of mass on a sensor chip optically.)
Method: (§1) Soluble KDR receptor was cross-linked to the dextran surface of a CM5 sensor chip by the standard amine coupling procedure. […] For association, peptides were injected at 20 μL/min for 2 minutes using the kinject program. Following a 3 minute dissociation period, any remaining peptide was stripped from the KDR surface with a quickinject of 50 mM NaOH, 1M NaCl for 15 s at 75 μL/min. […] Sensorgrams were analyzed by global analysis using BIAevaluation software 3.1.

Experiment [4] has as its target T3, Soluble KDR receptor. The experiment can be described thus: SPR (Biacore 3000), soluble KDR on CM5 chip; ka,1 (initial encounter).
Method: as §1
Experiment [5] has as its target T3, Soluble KDR receptor. The experiment can be described thus: SPR (Biacore 3000), soluble KDR on CM5 chip; ratio of the KD of monomer P10 to the apparent KD of the head-to-head dimer.
Method: as §1
Experiment [6] deals with T3, Soluble KDR receptor. As to the kind of experiment: SPR (Biacore 3000), soluble KDR on CM5 chip; column kd,1, by the text the predominant off-rate kd,2; predominant off-rate (kd,2 by the text) printed under the head kd,1.
Method: as §1
In experiment [7] the target is T3, Soluble KDR receptor. The experiment can be described thus: Biacore.
Method: as §1
The target of experiment [8] is T3, Soluble KDR receptor. As to the kind of experiment: SPR (Biacore 3000), soluble KDR on CM5 chip; column kd,1, by the text the predominant off-rate kd,2.
Method: as §1
The target of experiment [9] is T3, Soluble KDR receptor. The experiment can be described thus: SPR (Biacore 3000), soluble KDR on CM5 chip; ratio of the KD of monomer P9 to the apparent KD of the tail-to-tail dimer.
Method: as §1
By design, the interaction of a dimeric peptide with KDR is expected to proceed through two kinetic steps.
For experiment [10], the target named is T2, KDR (VEGFR-2, Flk-1), full-length …. The experiment can be described thus: displacement of P12-XB/streptavidin-HRP complex (5.5 nM) from KDR-expressing cells.

Positions of bridges follow the written chain, without caps; N, C: chain ends. Groups on a side chain read outwards from the residue. Chains are numbered I, II in the order given. No end group written: not given here. *: point of attachment. Biotin = O=C1N[C@H]2[C@H](CS[C@H]2CCCCC(=O)*)N1; fluorescein = fluorescein label on a side chain; AEEA = NCCOCCOCC(=O)O Some results are limits rather than exact numbers.

T2 sequence (P35968 20-1356): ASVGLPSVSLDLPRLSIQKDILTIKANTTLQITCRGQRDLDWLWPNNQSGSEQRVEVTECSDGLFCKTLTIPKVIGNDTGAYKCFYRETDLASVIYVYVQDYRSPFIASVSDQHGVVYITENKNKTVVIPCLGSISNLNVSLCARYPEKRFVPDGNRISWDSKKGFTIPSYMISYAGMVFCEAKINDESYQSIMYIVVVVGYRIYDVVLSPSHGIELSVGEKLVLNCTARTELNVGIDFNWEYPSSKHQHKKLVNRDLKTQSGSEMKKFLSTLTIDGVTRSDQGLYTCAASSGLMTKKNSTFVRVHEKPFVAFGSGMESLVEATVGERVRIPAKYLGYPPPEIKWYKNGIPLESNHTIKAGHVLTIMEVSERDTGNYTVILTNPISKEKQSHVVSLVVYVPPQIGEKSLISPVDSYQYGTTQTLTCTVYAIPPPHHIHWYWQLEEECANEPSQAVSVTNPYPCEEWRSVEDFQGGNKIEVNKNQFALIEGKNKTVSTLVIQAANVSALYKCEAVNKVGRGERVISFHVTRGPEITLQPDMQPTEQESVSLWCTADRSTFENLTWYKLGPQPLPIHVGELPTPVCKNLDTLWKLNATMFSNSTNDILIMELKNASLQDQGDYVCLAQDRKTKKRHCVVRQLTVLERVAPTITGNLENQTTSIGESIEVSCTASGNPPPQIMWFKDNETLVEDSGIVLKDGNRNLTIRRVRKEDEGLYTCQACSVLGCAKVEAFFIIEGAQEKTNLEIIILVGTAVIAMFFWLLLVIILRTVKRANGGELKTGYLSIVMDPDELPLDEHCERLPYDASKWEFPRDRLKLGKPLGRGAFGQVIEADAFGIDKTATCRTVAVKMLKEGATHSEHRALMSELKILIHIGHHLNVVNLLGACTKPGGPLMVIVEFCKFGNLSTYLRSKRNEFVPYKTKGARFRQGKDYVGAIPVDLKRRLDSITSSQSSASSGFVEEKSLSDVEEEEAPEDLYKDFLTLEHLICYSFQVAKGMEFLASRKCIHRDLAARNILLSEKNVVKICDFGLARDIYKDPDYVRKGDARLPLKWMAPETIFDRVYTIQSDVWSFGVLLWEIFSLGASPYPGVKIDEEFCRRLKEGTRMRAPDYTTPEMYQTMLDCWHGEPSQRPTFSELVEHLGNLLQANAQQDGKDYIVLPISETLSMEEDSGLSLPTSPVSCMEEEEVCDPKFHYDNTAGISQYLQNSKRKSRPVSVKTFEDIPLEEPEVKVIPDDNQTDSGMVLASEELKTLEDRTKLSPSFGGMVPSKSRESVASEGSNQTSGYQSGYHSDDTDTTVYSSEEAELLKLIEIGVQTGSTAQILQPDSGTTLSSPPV
T1 sequence (P35968 20-764, change not shown): as the sequence (P35968 20-764 limits assumed) above

In [1], AGPTWCEDDWYYCWLFGTGGGK(fluorescein)-NH2 (disulfide 6-13 (inferred)) [P12, monodentate peptide measured by FP] came in with a Kd of 3 nM.

B1: P6-XB (4X) on neutravidin-HRP (other)
peptide: Ac-GDSRVCWEDSWGGEVCFRYDPGGGK([AEEA-AEEA-Biotin])-NH2
modifications: disulfide 6-16; also: four peptides bound to neutravidin-HRP
notes: Peptides held on the four biotin sites of neutravidin-HRP; also called tetrameric P6-XB; P6-XB Tetramer
Molecule B1 registered a Kd in experiment [2] of 10 nM.

B2: Head-to-head dimer of P9 and P10 (peptide)
peptide 1: AQEPEGYAYWEVITLYHEEDGDGG
peptide 2: AQAFPRFGGDDYWIQQYLRYTDGG
modifications: not fully specified; N-terminal amino group carries an NH-PEG4-CO linker and amino-oxyacetyl group, oxime-linked to the other chain; N-terminal amino group carries an NH-PEG4-CO linker and levulinyl group, oxime-linked to the other chain
notes: also called H-H dimer
As usually defined, the kon is the second-order rate constant of association. Low readings indicate slower complex formation, high ones faster complex formation. The term koff denotes a measure of how fast the partners let go of each other. A higher koff goes with a short-lived complex. As to B2, the Kd with Soluble KDR receptor [3] is 2.24 nM. In the experiment with Soluble KDR receptor [4], this molecule had a kon of 111000 M⁻¹ s⁻¹. Moreover, in the experiment with Soluble KDR receptor [5], the “fold increase in affinity over monomer P10” value was more than 560 fold. In the experiment with Soluble KDR receptor [6], this molecule displayed a koff of 0.000249 s⁻¹.

B3: Tail-to-tail dimer of P9 and P10 (peptide)
peptide 1: Ac-AQEPEGYAYWEVITLYHEEDGDGGK-NH2
peptide 2: Ac-AQAFPRFGGDDYWIQQYLRYTDGGK-NH2
modifications: bridge I:25-II:25; not fully specified (bridges); printed as Ac-AQEPEGYAYWEVITLYHEEDGDGGK(Ac-AQAFPRFGGDDYWIQQYLRYTDGGK(—(O═)C(CH2CH2O)4CH2CH2NHC(═O)CH2CH2C(CH3)═NOCH2C(═O)NH(CH2CH2O)4CH2CH2C(═O)—)NH2)NH2; also: tail-to-tail dimer of two peptides joined through the Lys25 side chains
notes: also called T-T dimer; D31
Consider B3, for which the Kd in the experiment with Soluble KDR receptor [7] stood at 11 nM; with Soluble KDR receptor [3], 11.1 nM. The same molecule had an association rate constant (kon) with Soluble KDR receptor [4] of 115000 M⁻¹ s⁻¹. The same molecule returned a dissociation rate constant (koff) in the experiment with Soluble KDR receptor [8] of 0.00128 s⁻¹. In addition, the “fold increase in affinity over monomer P9” value in the experiment with Soluble KDR receptor [9] is more than 60 fold.

B4: P34-L (peptide)
peptide: Ac-AGPTWKEDDWYYEWLFGTGGGK-NH2
modifications: lactam 6-13
SMILES: CC(=O)N[C@@H](C)C(=O)NCC(=O)N1CCC[C@H]1C(=O)N[C@H](C(=O)N[C@@H](Cc1c[nH]c2ccccc12)C(=O)N[C@H]1CCCCNC(=O)CC[C@@H](C(=O)N[C@@H](Cc2c[nH]c3ccccc23)C(=O)N[C@@H](CC(C)C)C(=O)N[C@@H](Cc2ccccc2)C(=O)NCC(=O)N[C@H](C(=O)NCC(=O)NCC(=O)NCC(=O)N[C@@H](CCCCN)C(N)=O)[C@@H](C)O)NC(=O)[C@H](Cc2ccc(O)cc2)NC(=O)[C@H](Cc2ccc(O)cc2)NC(=O)[C@H](Cc2c[nH]c3ccccc23)NC(=O)[C@H](CC(=O)O)NC(=O)[C@H](CC(=O)O)NC(=O)[C@H](CCC(=O)O)NC1=O)[C@@H](C)O
notes: also called lactam analog of P12-G
Broadly, the IC50 is the concentration that inhibits the measured activity by half. The molecule B4 yielded a half-maximal inhibitory concentration (IC50) in experiment [10] of 108 nM.
